According to the Human Domainome abundance scans (Beltran et al. 2025):
± gives the uncertainty stated by the source.

B1: Homeobox protein cut-like 1, residues 941 to 1008; numbered along this chain, P39880 (parent)
chain: QEVDTIELTRQVKEKLAKNGICQRIFGEKVLGLSQGSVSDMLSRPKPWSKLTQKGREPFIRMQLWLNG

Variants of: B1
Assay: abundance fitness (aPCA) (normalised: wild type 0, dead -1); higher = more abundant; growth selection in yeast, the domain comes from the species named
Conditions: Homo sapiens
QEVDTIELTRQVKEKLAKNGICQRIFGEKVLGLSQGSVSDMLSRPKPVSKLTQKGREPFIRMQLWLNG [W48V] showed an abundance fitness of -0.672 ± 0.066.
QEVDTIELTRQVKEKLAKNGICQRIFGEKVLGLSQGSVSDMLSRPKPWSKLTQKGREPFIRMQNWLNG [L64N] gave an abundance fitness of 0.065 ± 0.096.
In the case of QEVDTIELTRQVKEKLAKNGICQRIFGEKVLGLSQGSVSDMLSRPKPWSKLTQKGREPFIRMQTWLNG [L64T], the abundance fitness is reported as 0.015 ± 0.061.
Variant QEVDTIELTRQVKEKLAKNGICYRIFGEKVLGLSQGSVSDMLSRPKPWSKLTQKGREPFIRMQLWLNG [Q23Y] has an abundance fitness of -0.162 ± 0.18.
Variant QEVDTIELTRQVKEKLAKNGICRRIFGEKVLGLSQGSVSDMLSRPKPWSKLTQKGREPFIRMQLWLNG [Q23R] has an abundance fitness of -0.019 ± 0.051.
In the case of QEVDTIELTRQVKEKLAKNGICQRIFGEKVLGLSQGSVSDMLSRPKPWSKLTQKGREPFILMQLWLNG [R61L], the abundance fitness is reported as -0.174 ± 0.045.
In the case of QEVRTIELTRQVKEKLAKNGICQRIFGEKVLGLSQGSVSDMLSRPKPWSKLTQKGREPFIRMQLWLNG [D4R], the abundance fitness is reported as -0.368 ± 0.06.
Variant QEVQTIELTRQVKEKLAKNGICQRIFGEKVLGLSQGSVSDMLSRPKPWSKLTQKGREPFIRMQLWLNG [D4Q] has an abundance fitness of -0.328 ± 0.061.
Variant QEVDTIELTRQVKEKLAKNGICQRILGEKVLGLSQGSVSDMLSRPKPWSKLTQKGREPFIRMQLWLNG [F26L] has an abundance fitness of -0.312 ± 0.051.
QEVDTIELTRQVKEKLAKNGICQRIQGEKVLGLSQGSVSDMLSRPKPWSKLTQKGREPFIRMQLWLNG [F26Q] gave an abundance fitness of -0.721 ± 0.098.
In the case of QEVDTIELTRQVKEKLAKNGICQRIYGEKVLGLSQGSVSDMLSRPKPWSKLTQKGREPFIRMQLWLNG [F26Y], the abundance fitness is reported as -0.741 ± 0.11.
In the case of QEVDTIELTRQVKEKLAKNGIDQRIFGEKVLGLSQGSVSDMLSRPKPWSKLTQKGREPFIRMQLWLNG [C22D], the abundance fitness is reported as -0.045 ± 0.11.
Variant QEVDTIELTRQVKEKLAKNGIKQRIFGEKVLGLSQGSVSDMLSRPKPWSKLTQKGREPFIRMQLWLNG [C22K] has an abundance fitness of -0.229 ± 0.084.
With QEVDTIELTRQVKEKLAKNGICQRIFGEKVLGLSQGSVSDMLSRPKPWSKLTQKGREPFIRMQLWNNG [L66N] the abundance fitness was -0.568 ± 0.11.
Work on QEVDTIELTRQVKEKLAKNGICQRIFGEKVLGLSQGSVSDMLSRPKPWSKLTQKGREPFIRMQLWSNG [L66S] yielded an abundance fitness of -0.82 ± 0.072.
Work on QEVDTIELTRQVKEKLAKNGICQRIFHEKVLGLSQGSVSDMLSRPKPWSKLTQKGREPFIRMQLWLNG [G27H] yielded an abundance fitness of -0.184 ± 0.14.
QEVDTIELTRQVDEKLAKNGICQRIFGEKVLGLSQGSVSDMLSRPKPWSKLTQKGREPFIRMQLWLNG [K13D] gave an abundance fitness of -0.262 ± 0.081.
QEVDTIELTRQVHEKLAKNGICQRIFGEKVLGLSQGSVSDMLSRPKPWSKLTQKGREPFIRMQLWLNG [K13H] showed an abundance fitness of -0.254 ± 0.098.
Work on QEVDTIELTRQVKEKLAKNGICQRIFGEKVLYLSQGSVSDMLSRPKPWSKLTQKGREPFIRMQLWLNG [G32Y] yielded an abundance fitness of -0.415 ± 0.096.
For QEVDTIELTRQVKEKLAKNGICQSIFGEKVLGLSQGSVSDMLSRPKPWSKLTQKGREPFIRMQLWLNG [R24S], the abundance fitness was -0.136 ± 0.055.
For QEVDTIELTRQVKEKLAKNGICQEIFGEKVLGLSQGSVSDMLSRPKPWSKLTQKGREPFIRMQLWLNG [R24E], the abundance fitness was 0.109 ± 0.12.
QEVDTIELTRQVKHKLAKNGICQRIFGEKVLGLSQGSVSDMLSRPKPWSKLTQKGREPFIRMQLWLNG [E14H] gave an abundance fitness of -0.498 ± 0.23.
QEVDTIELTRQVKEKLWKNGICQRIFGEKVLGLSQGSVSDMLSRPKPWSKLTQKGREPFIRMQLWLNG [A17W] gave an abundance fitness of -0.269 ± 0.059.
In the case of QEVDTIELTRQVKEKLAKNGICQRIFGEKVLGLSQGSVSDMLSRPKPWSKLTQKGREPVIRMQLWLNG [F59V], the abundance fitness is reported as -0.761 ± 0.064.
In the case of QEVDTIELTRQVKEKLAKNGICQRIFGEKVLGLSQGSVSDMLSRPKPWSKLTQKGREPYIRMQLWLNG [F59Y], the abundance fitness is reported as -0.006 ± 0.092.
With QEVDTIELTRQVKEKLAKNGICQRIFGEKVLGLSQGSVSDMPSRPKPWSKLTQKGREPFIRMQLWLNG [L42P] the abundance fitness was -0.117 ± 0.066.
With QEVDTIELTRQVKEKLAKNGICQRIFGEKVLGLSQGSVSDMDSRPKPWSKLTQKGREPFIRMQLWLNG [L42D] the abundance fitness was -0.393 ± 0.073.
With QEVDTIELTRQVKEKLAKPGICQRIFGEKVLGLSQGSVSDMLSRPKPWSKLTQKGREPFIRMQLWLNG [N19P] the abundance fitness was 0.043 ± 0.072.
For QEVDTIELTRQVKEKLAKNGICQRIFGEKVLGLSQGSVSDMLSDPKPWSKLTQKGREPFIRMQLWLNG [R44D], the abundance fitness was 0.12 ± 0.12.
QEVDTIELTRQVKEKLAKNGICQRIFGEKVLGLSQGSVSDMLSRPNPWSKLTQKGREPFIRMQLWLNG [K46N] gave an abundance fitness of -0.461 ± 0.089.
Variant QEVDTIELTRQVKEKLAKNGICQRIFGEKVLGLSQGSVSDMLSRPEPWSKLTQKGREPFIRMQLWLNG [K46E] has an abundance fitness of -0.013 ± 0.055.
With QEVDTIELTRQVKEKLAKNGICQRIFGEKVLGWSQGSVSDMLSRPKPWSKLTQKGREPFIRMQLWLNG [L33W] the abundance fitness was -0.115 ± 0.076.
QEADTIELTRQVKEKLAKNGICQRIFGEKVLGLSQGSVSDMLSRPKPWSKLTQKGREPFIRMQLWLNG [V3A] showed an abundance fitness of -0.133 ± 0.061.
In the case of QEPDTIELTRQVKEKLAKNGICQRIFGEKVLGLSQGSVSDMLSRPKPWSKLTQKGREPFIRMQLWLNG [V3P], the abundance fitness is reported as -0.111 ± 0.07.
QEVDTIELTRQVKEKLAKNGICQRIFGEKVLGLSNGSVSDMLSRPKPWSKLTQKGREPFIRMQLWLNG [Q35N] gave an abundance fitness of -0.353 ± 0.14.
Variant QEVDTIELTRQVKEKLAKNGICQRIFGEKVLGLSDGSVSDMLSRPKPWSKLTQKGREPFIRMQLWLNG [Q35D] has an abundance fitness of 0.066 ± 0.11.
Variant QEVDTIELTRQVKEKLAKNGICQRIFGEKVLGLSQGSVSDMLSRPKPWSKLTQKGREKFIRMQLWLNG [P58K] has an abundance fitness of -0.04 ± 0.073.
QEVDTIELTRQVKEKLAKNGICQRIFGEKVLGLSQGSVSDMLSRYKPWSKLTQKGREPFIRMQLWLNG [P45Y] showed an abundance fitness of -0.282 ± 0.077.
For QEVDTIELTRQVKEKLAKNGICQRIFGEKVLGLSQGSVSDMLSRFKPWSKLTQKGREPFIRMQLWLNG [P45F], the abundance fitness was -0.161 ± 0.073.
